Earlier results as cited in patent US12576131B2, “Altering inflammatory states of immune cells in vivo by modulating cellular activation states” (Fred Hutchinson Cancer Center, priority 2018, dated 2026).

Tested on: IRF8 responsive genes
Conditions: mutation of the K310 residue prevents SUMO binding

B1: murine IRF8 mutant: murine IRF8 with substitution of Lysine (K) at residue 310 with Arginine (R), SEQ ID NO: 17 (protein)
chain: MCDRNGGRRLRQWLIEQIDSSMYPGLIWENDEKTMFRIPWKHAGKQDYNQEVDASIFKAWAVFKGKFKEGDKAEPATWKTRLRCALNKSPDFEEVTDRSQLDISEPYKVYRIVPEEEQKCKLGVAPAGCMSEVPEMECGRSEIEELIKEPSVDEYMGMTKRSPSPPEACRSQILPDWWVQQPSAGLPLVTGYAAYDTHHSAFSQMVISFYYGGKLVGQATTTCLEGCRLSLSQPGLPKLYGPDGLEPVCFPTADTIPSERQRQVTRKLFGHLERGVLLHSNRKGVFVKRLCQGRVFCSGNAVVCKGRPNRLERDEVVQVFDTNQFIRELQQFYATQSRLPDSRVVLCFGEEFPDTVPLRSKLILVQVEQLYARQLVEEAGKSCGAGSLMPALEEPQPDQAFRMFPDICTSHQRPFFRENQQITV
increase in IRF8 specific gene transcription: 2-5 fold
